The test deals with SARS-CoV-2 BQ.1 Spike antigen (SARS-CoV-2 Omicron BQ.1). Description: cell-based or functional assay.

B1: Parental mAb 2 (antibody, V domains shown)
VH: QMQLMQSGAEVKKPGASVTVSCKASGDTFSDYRIHWVRQAPGQGLEWMGRMNPKSGDTNFAQKFQGRVTMTRDMSINTAYMTLSGLTFDDTALYYCASLLIVGGFDPLDDFEVWGQGTMVTISS
VL: QSALTQPPSASGSPGQSVTISCSGTSSDVGGYNFVSWYQHHPGKAPKILIYEVTKRPSGVPDRFSGSKSGNTASLTVSGLQAEDEADYYCSSYGGTNNLLFGGGTKLTVL
As to B1, the Pseudovirion neutralization IC50 was determined as 10.1 µg/mL.

The record behind these values is patent publication US20260234222A1.
